Reference: patent US20100015126A1, “Methods of Binding of Cross-Beta Structures By Chaperones” (priority 2006, published 2010)

Experiments:
[1] = biological target: Hypothetical protein/Heat shock 70 kDa protein 5 (glucose-regulated protein, 78 kDa = GRP78 = BiP = HSPA5), as identified in eluates (human) (UniProt P11021); assay: BiP-Sepharose pull-down, RA synovial fluid sample 6B, 1 M NaCl eluate, MS; BiP may stem from the column
[2] = biological target: IGLC1 protein (immunoglobulin lambda C1)/immunoglobulin lambda chain/immunoglobulin C1 segment protein (fragment) (human) (UniProt P0CG04); assay: BiP-Sepharose pull-down, AL amyloidosis patient II plasma (B3), MS of urea eluate; may be indirect
IGLC1 protein (immunoglobulin lambda C1)/immunoglobulin lambda chain/immunoglobulin C1 segment protein (fragment) (human), sequence (P0CG04 whole entry, the tested form may be a part): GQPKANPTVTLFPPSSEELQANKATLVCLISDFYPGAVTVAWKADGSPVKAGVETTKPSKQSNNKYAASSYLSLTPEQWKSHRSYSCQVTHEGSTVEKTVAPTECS

[3] = biological target: Hypothetical protein/Ig kappa chain V-II region RPMI 6410 precursor (human) (UniProt P06310); assay: as above
Hypothetical protein/Ig kappa chain V-II region RPMI 6410 precursor (human), sequence (P06310 21-120): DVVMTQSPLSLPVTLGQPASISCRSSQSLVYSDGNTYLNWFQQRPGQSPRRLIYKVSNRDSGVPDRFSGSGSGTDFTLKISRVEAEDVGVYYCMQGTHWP

[4] = biological target: V1-3 protein (Fragment)/immunoglobulin lambda variable 2-11 (human) (UniProt P01706); assay: as above
V1-3 protein (Fragment)/immunoglobulin lambda variable 2-11 (human), sequence (P01706 20-119 limits assumed): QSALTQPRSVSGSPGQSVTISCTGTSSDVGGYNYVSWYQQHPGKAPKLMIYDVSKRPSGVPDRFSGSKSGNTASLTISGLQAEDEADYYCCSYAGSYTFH

[5] = biological target: Complement factor H-related protein 3 precursor (human) (UniProt Q02985); assay: as above
Complement factor H-related protein 3 precursor (human), sequence (Q02985 19-330 limits assumed): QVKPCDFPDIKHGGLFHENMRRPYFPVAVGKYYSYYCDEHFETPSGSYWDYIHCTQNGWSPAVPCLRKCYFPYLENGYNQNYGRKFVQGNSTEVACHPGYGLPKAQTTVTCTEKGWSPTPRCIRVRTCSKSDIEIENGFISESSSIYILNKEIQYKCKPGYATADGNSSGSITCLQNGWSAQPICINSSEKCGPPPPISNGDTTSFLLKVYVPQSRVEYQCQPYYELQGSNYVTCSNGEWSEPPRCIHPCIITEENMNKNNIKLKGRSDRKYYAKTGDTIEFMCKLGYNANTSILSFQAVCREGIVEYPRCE

[6] = biological target: Dynein heavy chain domain 3/KIAA1503 protein (Fragment) (human) (UniProt Q9P225); assay: as above
[7] = biological target: Isoform 1 of Plectin-1 (human) (UniProt Q15149); assay: as above
[8] = biological target: 25 kDa protein/immunoglobulin lambda chain/rheumatoid factor G9 light chain (lambda V3)/IGLC1 protein (human) (UniProt P0CG04); assay: as above
[9] = biological target: Apolipoprotein E precursor/Apolipoprotein E/Apolipoprotein E3 (Fragment) (human) (UniProt P02649); assay: as above
Apolipoprotein E precursor/Apolipoprotein E/Apolipoprotein E3 (Fragment) (human), sequence (P02649 19-317 limits assumed): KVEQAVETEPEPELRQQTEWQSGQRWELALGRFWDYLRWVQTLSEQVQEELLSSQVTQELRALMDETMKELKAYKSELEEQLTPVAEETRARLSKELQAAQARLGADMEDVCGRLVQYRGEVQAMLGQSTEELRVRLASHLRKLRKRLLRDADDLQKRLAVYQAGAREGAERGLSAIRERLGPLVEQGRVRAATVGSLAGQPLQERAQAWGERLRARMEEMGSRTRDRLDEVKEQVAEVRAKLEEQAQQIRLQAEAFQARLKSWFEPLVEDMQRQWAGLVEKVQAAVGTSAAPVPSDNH

[10] = biological target: Immunoglobulin heavy constant gamma 3 (G3m marker)/Ig gamma-3 chain C region (human) (UniProt P01860); assay: as above
[11] = biological target: Isoform A of Proteoglycan-4 precursor (human) (UniProt Q92954); assay: BiP-Sepharose pull-down, RA synovial fluid sample 3B, 1 M NaCl eluate, MS; may be indirect
[12] = biological target: Heat shock 70 kDa protein 1L (human) (UniProt P34931); assay: as above
[13] = biological target: Apolipoprotein A-I precursor (human) (UniProt P02647); assay: as above
Apolipoprotein A-I precursor (human), sequence (P02647 25-267 limits assumed): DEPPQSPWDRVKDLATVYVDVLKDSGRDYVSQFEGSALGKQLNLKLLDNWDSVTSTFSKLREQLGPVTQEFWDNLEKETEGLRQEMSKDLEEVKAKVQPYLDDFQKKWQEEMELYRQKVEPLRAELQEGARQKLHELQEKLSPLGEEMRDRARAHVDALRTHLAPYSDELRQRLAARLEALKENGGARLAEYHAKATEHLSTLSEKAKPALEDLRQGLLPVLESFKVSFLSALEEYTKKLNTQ

[14] = biological target: Ig kappa chain V-IV region Len, immunoglobulin kappa variable 4-1 (human) (UniProt P06312); assay: as above
[15] = biological target: IGKV1-5 protein, immunoglobulin kappa variable 1-5 (human) (UniProt P01602); assay: as above
IGKV1-5 protein, immunoglobulin kappa variable 1-5 (human), sequence (P01602 23-117 limits assumed): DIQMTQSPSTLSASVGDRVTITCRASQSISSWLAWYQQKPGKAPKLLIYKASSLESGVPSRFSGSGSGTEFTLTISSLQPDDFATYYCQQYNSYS

[16] = biological target: IGHM protein, immunoglobulin heavy chain mu (heavy chain disease protein) (human) (UniProt P01871); assay: as above
IGHM protein, immunoglobulin heavy chain mu (heavy chain disease protein) (human), sequence (P01871 other isoform, or with tags, fused parts or gaps limits assumed): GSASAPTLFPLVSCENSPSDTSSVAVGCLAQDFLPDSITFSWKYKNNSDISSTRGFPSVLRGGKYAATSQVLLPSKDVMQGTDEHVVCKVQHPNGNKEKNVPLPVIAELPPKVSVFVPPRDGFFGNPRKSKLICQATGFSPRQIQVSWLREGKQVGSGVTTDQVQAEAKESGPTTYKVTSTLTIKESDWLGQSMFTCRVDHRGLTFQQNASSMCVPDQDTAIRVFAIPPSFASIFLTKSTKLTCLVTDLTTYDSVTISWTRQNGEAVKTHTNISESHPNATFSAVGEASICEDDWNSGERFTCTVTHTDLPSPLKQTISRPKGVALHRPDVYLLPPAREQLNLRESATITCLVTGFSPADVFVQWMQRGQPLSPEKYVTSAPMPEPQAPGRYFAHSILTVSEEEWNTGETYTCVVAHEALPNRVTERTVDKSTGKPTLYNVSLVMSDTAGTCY

[17] = biological target: Galectin-3-binding protein precursor (human) (UniProt Q08380); assay: as above
[18] = biological target: Clusterin precursor (human) (UniProt P10909); assay: as above
Clusterin precursor (human), sequence (P10909 23-449 limits assumed, form in doubt): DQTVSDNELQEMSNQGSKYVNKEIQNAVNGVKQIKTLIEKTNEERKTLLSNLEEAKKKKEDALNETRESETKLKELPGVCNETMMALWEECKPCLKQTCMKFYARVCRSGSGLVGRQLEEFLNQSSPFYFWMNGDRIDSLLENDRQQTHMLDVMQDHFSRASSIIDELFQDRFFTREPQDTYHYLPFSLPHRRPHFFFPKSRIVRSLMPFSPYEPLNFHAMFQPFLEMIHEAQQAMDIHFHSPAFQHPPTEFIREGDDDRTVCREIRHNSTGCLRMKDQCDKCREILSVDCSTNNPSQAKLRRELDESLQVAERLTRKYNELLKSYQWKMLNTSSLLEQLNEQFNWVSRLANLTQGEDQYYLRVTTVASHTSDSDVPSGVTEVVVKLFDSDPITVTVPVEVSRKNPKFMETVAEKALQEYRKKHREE

[19] = biological target: Isoform H17 of Myeloperoxidase precursor (human) (UniProt P05164); assay: as above
[20] = biological target: Neutrophil defensin 1 precursor (human) (UniProt P59665); assay: as above
Neutrophil defensin 1 precursor (human), sequence (P59665 65-94 limits assumed): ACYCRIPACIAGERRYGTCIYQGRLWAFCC

[21] = biological target: Haptoglobin precursor (human) (UniProt P00738); assay: as above
Haptoglobin precursor (human), sequence (P00738 19-406 limits assumed): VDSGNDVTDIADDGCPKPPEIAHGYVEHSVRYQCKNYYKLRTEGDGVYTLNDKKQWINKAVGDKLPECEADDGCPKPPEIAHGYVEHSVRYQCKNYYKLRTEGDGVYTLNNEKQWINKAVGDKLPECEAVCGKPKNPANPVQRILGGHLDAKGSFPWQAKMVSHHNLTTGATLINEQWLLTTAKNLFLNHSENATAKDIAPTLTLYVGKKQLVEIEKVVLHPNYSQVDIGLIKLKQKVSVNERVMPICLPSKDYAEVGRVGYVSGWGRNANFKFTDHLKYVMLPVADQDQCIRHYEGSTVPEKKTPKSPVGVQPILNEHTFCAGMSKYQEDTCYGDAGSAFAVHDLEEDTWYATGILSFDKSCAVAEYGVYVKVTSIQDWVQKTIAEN

[22] = biological target: 25 kDa protein/immunoglobulin lambda chain/rheumatoid factor G9 light chain (lambda V3)/IGLC1 protein (human) (UniProt P0CG04); assay: as above
[23] = biological target: Histone H3.2 (human) (UniProt Q71DI3); assay: as above
[24] = biological target: FLJ00385 protein (Fragment), immunoglobulin heavy constant mu (human) (UniProt P01871); assay: as above
FLJ00385 protein (Fragment), immunoglobulin heavy constant mu (human), sequence (P01871 other isoform, or with tags, fused parts or gaps limits assumed): as the sequence (P01871 other isoform, or with tags, fused parts or gaps limits assumed) above

[25] = biological target: Immunoglobulin heavy constant mu (IPI00479708) (human) (UniProt P01871); assay: BiP-Sepharose pull-down, RA patient IV synovial fluid (B6), MS of urea eluate; may be indirect
Immunoglobulin heavy constant mu (IPI00479708) (human), sequence (P01871 other isoform, or with tags, fused parts or gaps limits assumed): as above

[26] = biological target: Ig heavy chain V-III region CAM (human) (UniProt P01768); assay: as above
[27] = biological target: Hypothetical protein/Heat shock 70 kDa protein 5 (glucose-regulated protein, 78 kDa = GRP78 = BiP = HSPA5), as identified in eluates (human) (UniProt P11021); assay: BiP-Sepharose pull-down, RA synovial fluid sample 4B, 1 M NaCl eluate, MS; BiP may stem from the column
[28] = biological target: Hypothetical protein/Heat shock 70 kDa protein 5 (glucose-regulated protein, 78 kDa = GRP78 = BiP = HSPA5), as identified in eluates (human) (UniProt P11021); assay: BiP-Sepharose pull-down, RA synovial fluid sample 2B, 1 M NaCl eluate, MS; BiP may stem from the column

recombinant human BiP with C-terminal linker, FLAG-tag and His-tag (BiP-FLAG-His), sequence (P11021 other isoform, or with tags, fused parts or gaps): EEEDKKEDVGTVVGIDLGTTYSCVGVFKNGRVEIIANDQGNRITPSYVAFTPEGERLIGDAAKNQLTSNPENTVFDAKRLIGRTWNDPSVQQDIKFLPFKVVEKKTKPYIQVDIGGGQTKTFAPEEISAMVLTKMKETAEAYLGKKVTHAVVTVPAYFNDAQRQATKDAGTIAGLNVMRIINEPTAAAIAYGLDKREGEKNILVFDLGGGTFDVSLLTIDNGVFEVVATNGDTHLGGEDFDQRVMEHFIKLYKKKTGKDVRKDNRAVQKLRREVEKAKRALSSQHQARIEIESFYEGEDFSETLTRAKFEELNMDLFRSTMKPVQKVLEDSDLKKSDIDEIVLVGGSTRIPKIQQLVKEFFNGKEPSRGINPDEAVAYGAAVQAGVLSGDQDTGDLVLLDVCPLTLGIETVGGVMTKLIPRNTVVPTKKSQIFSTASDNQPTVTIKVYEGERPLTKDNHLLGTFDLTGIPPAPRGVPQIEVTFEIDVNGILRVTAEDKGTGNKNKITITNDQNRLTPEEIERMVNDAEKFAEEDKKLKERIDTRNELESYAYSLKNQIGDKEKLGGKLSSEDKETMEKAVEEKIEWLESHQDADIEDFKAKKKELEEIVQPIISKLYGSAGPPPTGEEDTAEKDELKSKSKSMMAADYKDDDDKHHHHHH
Hypothetical protein/Heat shock 70 kDa protein 5 (glucose-regulated protein, 78 kDa = GRP78 = BiP = HSPA5), as identified in eluates (human), sequence (P11021 19-654 limits assumed): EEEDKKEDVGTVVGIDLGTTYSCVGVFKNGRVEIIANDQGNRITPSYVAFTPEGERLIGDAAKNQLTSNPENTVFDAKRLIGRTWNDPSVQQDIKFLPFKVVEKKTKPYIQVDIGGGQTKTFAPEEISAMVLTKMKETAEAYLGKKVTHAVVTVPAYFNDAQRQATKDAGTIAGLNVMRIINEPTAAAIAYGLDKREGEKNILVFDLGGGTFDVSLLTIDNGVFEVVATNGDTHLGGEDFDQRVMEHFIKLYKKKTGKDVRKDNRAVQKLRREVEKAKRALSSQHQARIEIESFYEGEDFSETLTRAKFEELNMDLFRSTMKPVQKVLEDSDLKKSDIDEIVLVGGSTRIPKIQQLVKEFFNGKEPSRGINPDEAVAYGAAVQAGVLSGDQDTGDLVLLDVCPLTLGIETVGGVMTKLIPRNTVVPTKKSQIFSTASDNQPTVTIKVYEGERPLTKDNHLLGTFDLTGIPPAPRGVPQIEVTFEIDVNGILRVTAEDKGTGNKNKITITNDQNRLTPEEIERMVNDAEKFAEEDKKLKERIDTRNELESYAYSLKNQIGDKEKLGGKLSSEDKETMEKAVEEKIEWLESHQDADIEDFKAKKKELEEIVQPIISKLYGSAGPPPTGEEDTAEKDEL

In the case of “recombinant human BiP with C-terminal linker, FLAG-tag and His-tag (BiP-FLAG-His) (from UniProt P11021 19-654)”, the # of unique peptides [1] is reported as 17 peptides, the # of peptides [2] is reported as 1 peptides and the # of peptides [3] is reported as 1 peptides. For the same substance, the # of peptides [4] was 2 peptides, the # of peptides [5] was 1 peptides and the # of peptides [6] was 2 peptides. For the same substance, the # of peptides [7] was 1 peptides, the # of peptides [8] was 1 peptides and the # of peptides [9] was 1 peptides. The # of peptides [10] was 2 peptides, the # of unique peptides [11] was 2 peptides and the # of unique peptides [12] was 1 peptides. For the same substance, the # of unique peptides [13] was 8 peptides, the # of unique peptides [14] was 1 peptides and the # of unique peptides [15] was 5 peptides. It also gave a # of unique peptides [16] of 1 peptides, a # of unique peptides [17] of 1 peptides and a # of unique peptides [18] of 1 peptides. It also gave a # of unique peptides [19] of 1 peptides, a # of unique peptides [20] of 1 peptides and a # of unique peptides [21] of 3 peptides. It also gave a # of unique peptides [22] of 1 peptides, a # of unique peptides [23] of 1 peptides and a # of unique peptides [24] of 2 peptides. The # of peptides [25] was 1 peptides, the # of peptides [26] was 2 peptides and the # of unique peptides [27] was 10 peptides. For the same substance, the # of unique peptides [28] was 12 peptides.
